Test results from publication PMC7476737, “Targeting 14-3-3ε-CDC25A interactions to trigger apoptotic cell death in skin cancer” (Oncotarget, 2020).
[ ]: non-standard residue; d: D form. pT = C[C@@H](OP(=O)(O)O)[C@H](N)C(=O)O; pS = N[C@@H](COP(=O)(O)O)C(=O)O

T1: 14-3-3ε (human (endogenous in SCC12B.2 and nHEK), UniProt P62258 1-255)
T1 sequence (looked up): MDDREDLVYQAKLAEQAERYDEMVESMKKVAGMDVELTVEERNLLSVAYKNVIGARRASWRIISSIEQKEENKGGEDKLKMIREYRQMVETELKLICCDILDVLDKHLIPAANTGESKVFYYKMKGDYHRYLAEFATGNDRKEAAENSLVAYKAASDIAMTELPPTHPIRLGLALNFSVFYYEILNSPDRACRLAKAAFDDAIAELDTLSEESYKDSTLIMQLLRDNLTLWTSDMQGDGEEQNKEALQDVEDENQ


Molecular target: T1, 14-3-3ε
Experiment: cell-based or functional assay

Binder | IC50 of SCC12B.2 cell viability (neutral red assay, 0-75 μM peptide, 96 h); the pair blocked is 14-3-3ε with CDC25A
Ac-TQRQN[pS]APARMLSS-NH2 (peptide, UniProt P30304 173-186, looked up, SMILES CSCC[C@H](NC(=O)[C@H](CCCNC(=N)N)NC(=O)[C@H](C)NC(=O)[C@@H]1CCCN1C(=O)[C@H](C)NC(=O)[C@H](COP(=O)(O)O)NC(=O)[C@H](CC(N)=O)NC(=O)[C@H](CCC(N)=O)NC(=O)[C@H](CCCNC(=N)N)NC(=O)[C@H](CCC(N)=O)NC(=O)[C@@H](NC(C)=O)[C@@H](C)O)C(=O)N[C@@H](CC(C)C)C(=O)N[C@@H](CO)C(=O)N[C@@H](CO)C(N)=O) [pS peptide (173-186 fragment of human CDC25A with phospho-Ser178)] | 29 µM
Ac-FRTKSR[pT]WAGEKSKR-NH2 (peptide, UniProt P30304 501-515, looked up, SMILES CC(=O)N[C@@H](Cc1ccccc1)C(=O)N[C@@H](CCCNC(=N)N)C(=O)N[C@H](C(=O)N[C@@H](CCCCN)C(=O)N[C@@H](CO)C(=O)N[C@@H](CCCNC(=N)N)C(=O)N[C@H](C(=O)N[C@@H](Cc1c[nH]c2ccccc12)C(=O)N[C@@H](C)C(=O)NCC(=O)N[C@@H](CCC(=O)O)C(=O)N[C@@H](CCCCN)C(=O)N[C@@H](CO)C(=O)N[C@@H](CCCCN)C(=O)N[C@@H](CCCNC(=N)N)C(N)=O)[C@@H](C)OP(=O)(O)O)[C@@H](C)O) [pT peptide (501-515 fragment of human CDC25A with phospho-Thr507)] | 22.6 µM
